Series [1] in a line: sucrose gradient sEV fractions from SNU449, Strep immunoblot. To be noted: glycan lost; control: TM4SF5-WT. In general terms: A western blot detects proteins with antibodies after separation by electrophoresis.
Series [2] is described as follows: immunoblot of sEVs from transfected Huh7 cells. To be noted: glycan lost; control: TM4SF5-Strep WT.

The values below come from publication PMC9443943.

B1: Transmembrane 4 L six family member 5 (TM4SF5): N138A/N155Q, Gly− (protein)
parent chain: MCTGKCARCVGLSLITLCLVCIVANALLLVPNGETSWTNTNHLSLQVWLMGGFIGGGLMVLCPGIAAVRAGGKGCCGAGCCGNRCRMLRSVFSSAFGVLGAIYCLSVSGAGLRNGPRCLMNGEWGYHFEDTAGAYLLNRTLWDRCEAPPRVVPWNVTLFSLLVAASCLEIVLCGIQLVNATIGVFCGDCRKKQDTPH
On to B1, for which the localisation_or_trafficking result in series [1] and in series [2] was “abolishes” throughout.

B2: Transmembrane 4 L six family member 5 (TM4SF5): N138A (protein)
parent chain: B1 parent chain
In the case of B2, the localisation_or_trafficking entry in series [2] is reported as “decreases”.

B3: Transmembrane 4 L six family member 5 (TM4SF5): N155Q (protein)
parent chain: B1 parent chain
Regarding B3, in series [2], the localisation_or_trafficking entry was “no change”.
